Experimental findings from US10562947B2, “Compositions and methods for preventing or treating diseases, conditions or processes characterized by aberrant fibroblast proliferation and extracellular matrix deposition” (MOERAE MATRIX, INC., priority 2011, dated 2020) are described below.

Common to all, as to experiment: Kinase Profiling Assay
Holding throughout (type): biochemical
Settings in all cases: 100 μM peptide

Experiment [1] has as its target CK1δ(h) (Homo sapiens, UniProt P48730). Put shortly: (§1)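 In duplicate, the activities of 266 available human kinases were determined with MK2 inhibitory peptides present, as a measure of peptide selectivity.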
Experiment [2] deals with ALK(h) (Homo sapiens, UniProt Q9UM73). In a few lines: as §1
Experiment [3] addresses cKit(D816V)(h) (Homo sapiens, UniProt P10721, D816V). Put shortly: as §1
In experiment [4] the target is ZIPK(h) (Homo sapiens, UniProt O43293). Put shortly:
as §1

The target in experiment [5] is cKit(h) (Homo sapiens, UniProt P10721). In a few lines:
as §1

For experiment [6], the target named is T1, IGF-1R(h), activated (Homo sapiens, UniProt P08069).
T1 construct: purchased Millipore
Put shortly:
as §1

For experiment [7], the target named is T2, MST1(h) (Homo sapiens, UniProt Q13043).
T2 sequence (Q13043 1-487): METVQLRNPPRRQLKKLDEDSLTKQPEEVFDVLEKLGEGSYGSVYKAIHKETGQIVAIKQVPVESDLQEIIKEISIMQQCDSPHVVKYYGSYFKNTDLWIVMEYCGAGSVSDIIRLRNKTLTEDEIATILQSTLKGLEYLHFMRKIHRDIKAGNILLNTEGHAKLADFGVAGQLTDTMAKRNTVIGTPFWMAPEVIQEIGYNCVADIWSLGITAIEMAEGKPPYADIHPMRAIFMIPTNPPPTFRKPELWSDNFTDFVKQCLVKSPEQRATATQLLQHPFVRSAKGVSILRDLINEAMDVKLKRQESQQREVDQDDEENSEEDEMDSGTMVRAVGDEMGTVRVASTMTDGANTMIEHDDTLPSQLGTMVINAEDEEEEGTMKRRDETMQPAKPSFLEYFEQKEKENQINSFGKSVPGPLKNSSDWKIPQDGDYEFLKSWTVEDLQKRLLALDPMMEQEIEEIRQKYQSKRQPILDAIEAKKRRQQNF
Put shortly:
as §1

Experiment [8] concerns the target T3, EphB1(h) (Homo sapiens, UniProt P54762).
T3 sequence (P54762 18-984): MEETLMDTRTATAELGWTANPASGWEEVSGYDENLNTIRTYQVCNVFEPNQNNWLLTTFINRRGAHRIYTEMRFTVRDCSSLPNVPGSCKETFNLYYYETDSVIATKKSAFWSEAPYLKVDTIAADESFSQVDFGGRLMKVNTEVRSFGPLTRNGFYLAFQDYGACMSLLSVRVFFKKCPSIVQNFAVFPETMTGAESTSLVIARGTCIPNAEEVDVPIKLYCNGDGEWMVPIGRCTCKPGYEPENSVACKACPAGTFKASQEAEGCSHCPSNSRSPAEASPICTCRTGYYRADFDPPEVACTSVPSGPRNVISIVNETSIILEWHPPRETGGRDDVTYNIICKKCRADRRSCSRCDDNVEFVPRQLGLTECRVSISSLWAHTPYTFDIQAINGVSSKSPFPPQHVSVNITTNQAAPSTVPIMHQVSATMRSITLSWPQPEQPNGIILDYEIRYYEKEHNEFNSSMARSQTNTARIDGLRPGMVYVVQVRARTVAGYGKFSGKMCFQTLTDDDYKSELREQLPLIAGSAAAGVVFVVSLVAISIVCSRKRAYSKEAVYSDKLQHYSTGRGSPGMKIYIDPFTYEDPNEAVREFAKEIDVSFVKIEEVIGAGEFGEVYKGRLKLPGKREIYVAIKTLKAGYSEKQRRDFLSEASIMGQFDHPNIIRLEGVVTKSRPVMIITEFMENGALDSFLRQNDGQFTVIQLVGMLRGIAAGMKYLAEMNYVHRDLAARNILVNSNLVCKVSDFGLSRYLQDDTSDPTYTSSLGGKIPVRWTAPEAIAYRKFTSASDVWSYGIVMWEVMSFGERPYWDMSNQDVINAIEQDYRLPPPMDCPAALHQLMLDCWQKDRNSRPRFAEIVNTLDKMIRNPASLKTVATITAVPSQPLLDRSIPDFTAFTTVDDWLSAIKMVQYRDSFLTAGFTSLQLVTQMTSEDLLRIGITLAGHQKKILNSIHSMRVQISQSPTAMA
In a few lines:
as §1

Experiment [9] addresses Pim-2(h) (Homo sapiens, UniProt Q9P1W9). Put shortly:
as §1

Experiment [10] deals with T4, IR(h) (Homo sapiens, UniProt P06213).
T4 construct: purchased Millipore
In a few lines: as §1

Experiment [11] concerns the target MEK1(h) (Homo sapiens, UniProt Q02750). Put shortly:
as §1

Experiment [12] concerns the target T5, SGK(h) (Homo sapiens, UniProt O00141).
T5 sequence (O00141 1-431): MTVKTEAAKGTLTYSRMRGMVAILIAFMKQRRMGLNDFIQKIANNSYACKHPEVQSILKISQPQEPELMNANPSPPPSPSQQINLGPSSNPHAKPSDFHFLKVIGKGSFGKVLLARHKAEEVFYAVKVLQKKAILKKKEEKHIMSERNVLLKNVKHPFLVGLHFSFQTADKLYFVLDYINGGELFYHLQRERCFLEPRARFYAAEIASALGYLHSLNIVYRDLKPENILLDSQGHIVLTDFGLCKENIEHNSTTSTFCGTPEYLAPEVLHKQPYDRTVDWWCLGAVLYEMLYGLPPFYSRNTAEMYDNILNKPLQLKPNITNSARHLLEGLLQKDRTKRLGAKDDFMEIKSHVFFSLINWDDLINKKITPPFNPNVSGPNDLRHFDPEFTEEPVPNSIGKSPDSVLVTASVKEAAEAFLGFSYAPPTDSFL
Put shortly:
as §1

T1 sequence (P08069 959-1367 limits assumed): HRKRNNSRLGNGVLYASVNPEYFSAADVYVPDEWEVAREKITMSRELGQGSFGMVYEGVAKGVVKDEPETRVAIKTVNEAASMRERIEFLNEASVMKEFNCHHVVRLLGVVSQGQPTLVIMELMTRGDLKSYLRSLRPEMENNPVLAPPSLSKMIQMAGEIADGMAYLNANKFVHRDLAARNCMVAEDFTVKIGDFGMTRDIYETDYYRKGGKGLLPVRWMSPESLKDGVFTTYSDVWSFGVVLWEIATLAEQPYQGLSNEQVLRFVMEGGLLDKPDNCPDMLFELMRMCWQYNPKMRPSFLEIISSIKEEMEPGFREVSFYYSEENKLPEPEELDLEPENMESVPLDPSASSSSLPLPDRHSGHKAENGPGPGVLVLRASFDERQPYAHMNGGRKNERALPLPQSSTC
CK1δ(h), sequence (P48730 whole entry): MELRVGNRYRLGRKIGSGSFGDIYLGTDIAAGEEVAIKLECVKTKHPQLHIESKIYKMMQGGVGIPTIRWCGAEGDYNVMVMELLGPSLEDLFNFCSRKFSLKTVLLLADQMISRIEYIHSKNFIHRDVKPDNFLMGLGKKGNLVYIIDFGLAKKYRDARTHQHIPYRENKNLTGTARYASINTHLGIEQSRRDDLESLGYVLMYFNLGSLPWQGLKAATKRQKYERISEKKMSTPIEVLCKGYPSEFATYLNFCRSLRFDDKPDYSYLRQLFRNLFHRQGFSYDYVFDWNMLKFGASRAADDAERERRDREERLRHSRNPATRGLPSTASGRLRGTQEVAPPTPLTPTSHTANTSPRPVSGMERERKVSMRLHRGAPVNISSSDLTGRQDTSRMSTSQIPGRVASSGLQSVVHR
ALK(h), sequence (Q9UM73 19-1620): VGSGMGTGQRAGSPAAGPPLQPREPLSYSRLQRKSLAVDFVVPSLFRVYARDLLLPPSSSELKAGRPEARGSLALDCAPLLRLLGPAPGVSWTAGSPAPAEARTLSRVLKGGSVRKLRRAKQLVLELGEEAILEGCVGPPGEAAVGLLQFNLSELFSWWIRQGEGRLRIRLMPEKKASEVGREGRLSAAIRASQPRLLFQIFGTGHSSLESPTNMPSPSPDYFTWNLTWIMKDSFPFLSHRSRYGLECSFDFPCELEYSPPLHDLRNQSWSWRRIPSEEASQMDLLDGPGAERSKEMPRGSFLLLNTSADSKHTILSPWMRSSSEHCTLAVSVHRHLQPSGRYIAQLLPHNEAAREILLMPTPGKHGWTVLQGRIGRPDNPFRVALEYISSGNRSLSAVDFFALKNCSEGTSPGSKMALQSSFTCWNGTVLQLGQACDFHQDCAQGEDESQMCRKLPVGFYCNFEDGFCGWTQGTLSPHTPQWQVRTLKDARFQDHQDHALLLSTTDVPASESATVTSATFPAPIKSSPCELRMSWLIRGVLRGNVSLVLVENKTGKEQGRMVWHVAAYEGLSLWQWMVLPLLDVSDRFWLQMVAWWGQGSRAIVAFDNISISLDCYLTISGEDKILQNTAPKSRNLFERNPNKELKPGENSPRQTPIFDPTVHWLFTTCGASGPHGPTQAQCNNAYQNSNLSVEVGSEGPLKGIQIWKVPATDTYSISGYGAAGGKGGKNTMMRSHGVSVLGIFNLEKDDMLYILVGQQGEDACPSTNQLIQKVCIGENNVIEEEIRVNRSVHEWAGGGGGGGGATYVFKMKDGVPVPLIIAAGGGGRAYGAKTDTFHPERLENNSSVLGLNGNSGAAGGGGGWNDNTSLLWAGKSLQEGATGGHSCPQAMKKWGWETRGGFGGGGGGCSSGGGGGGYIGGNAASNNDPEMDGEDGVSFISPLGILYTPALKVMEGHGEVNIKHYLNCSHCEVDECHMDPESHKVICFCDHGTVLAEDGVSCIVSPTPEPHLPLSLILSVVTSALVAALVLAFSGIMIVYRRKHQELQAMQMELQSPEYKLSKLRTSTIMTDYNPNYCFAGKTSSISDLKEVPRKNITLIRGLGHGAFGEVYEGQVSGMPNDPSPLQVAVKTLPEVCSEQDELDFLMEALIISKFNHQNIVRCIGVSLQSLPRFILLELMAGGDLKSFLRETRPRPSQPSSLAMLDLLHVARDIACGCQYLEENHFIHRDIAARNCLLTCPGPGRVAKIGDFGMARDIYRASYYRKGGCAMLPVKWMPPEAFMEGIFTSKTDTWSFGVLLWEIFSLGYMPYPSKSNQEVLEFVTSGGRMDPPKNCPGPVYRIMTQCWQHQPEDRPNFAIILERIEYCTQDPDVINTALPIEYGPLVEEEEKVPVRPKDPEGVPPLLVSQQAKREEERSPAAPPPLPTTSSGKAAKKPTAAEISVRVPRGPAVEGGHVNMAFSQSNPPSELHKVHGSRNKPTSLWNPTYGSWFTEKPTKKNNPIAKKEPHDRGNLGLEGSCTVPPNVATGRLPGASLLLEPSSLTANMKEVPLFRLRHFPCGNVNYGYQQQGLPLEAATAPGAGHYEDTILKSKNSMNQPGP
ZIPK(h), sequence (O43293 whole entry): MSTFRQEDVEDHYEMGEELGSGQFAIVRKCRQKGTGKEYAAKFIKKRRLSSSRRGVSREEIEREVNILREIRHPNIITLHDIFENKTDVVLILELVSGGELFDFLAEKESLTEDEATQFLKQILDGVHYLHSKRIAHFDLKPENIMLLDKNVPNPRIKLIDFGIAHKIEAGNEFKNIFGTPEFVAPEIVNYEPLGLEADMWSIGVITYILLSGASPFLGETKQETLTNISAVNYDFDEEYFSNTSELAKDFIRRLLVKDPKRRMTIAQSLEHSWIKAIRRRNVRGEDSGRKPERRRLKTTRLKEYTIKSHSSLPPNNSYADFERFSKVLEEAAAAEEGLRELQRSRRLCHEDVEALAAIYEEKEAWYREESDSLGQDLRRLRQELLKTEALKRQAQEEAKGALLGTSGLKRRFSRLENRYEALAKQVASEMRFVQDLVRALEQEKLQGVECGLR
Pim-2(h), sequence (Q9P1W9 whole entry): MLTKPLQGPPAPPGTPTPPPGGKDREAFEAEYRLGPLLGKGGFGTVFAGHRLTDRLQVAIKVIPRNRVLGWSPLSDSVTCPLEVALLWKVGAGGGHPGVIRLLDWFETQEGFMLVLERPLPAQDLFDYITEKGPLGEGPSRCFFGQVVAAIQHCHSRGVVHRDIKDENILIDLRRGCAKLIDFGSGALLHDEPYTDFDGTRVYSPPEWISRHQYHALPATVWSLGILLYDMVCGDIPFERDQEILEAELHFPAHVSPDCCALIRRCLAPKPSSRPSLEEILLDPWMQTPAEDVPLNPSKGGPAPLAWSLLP

Take “YARAAARQARAKALNRQLGVA (Mammalian) [MMI-0200]”: the “CK1δ(h) % activity” value in experiment [1] came out at 92%. The “ALK(h) % activity” value in experiment [2] is on record as 95%. Besides, in experiment [3], the “cKit(D816V)(h) % activity” value amounted to 118%. Also, in experiment [4], the “ZIPK(h) % activity” value was determined as 67%. Besides, the “cKit(h) % activity” value in experiment [5] is given as 110%. For the same sequence, in [6], the “IGF-1R(h), activated % activity” value came out at 94%. For the same sequence, the “MST1(h) % activity” value in experiment [7] is listed as 72%. The “EphB1(h) % activity” value in experiment [8] is 95%. Further, the “Pim-2(h) % activity” value in experiment [9] was found to be 74%. Also, the “IR(h) % activity” value in experiment [10] is reported as 90%.

As for “HRRIKAWLKKIKALARQLGVAA (Mammalian) [MMI-0500]”, the “MEK1(h) % activity” value in experiment [11] was 21%. Also, the “CK1δ(h) % activity” value in experiment [1] turned out to be 78%. Moreover, in [2], the “ALK(h) % activity” value is 12%. In addition, the “cKit(D816V)(h) % activity” value in [3] turned out to be 30%. For the same sequence, the “ZIPK(h) % activity” value in [4] worked out at 1%. Besides, the “cKit(h) % activity” value in experiment [5] was determined as 45%. Further, the “SGK(h) % activity” value in experiment [12] was 2%. The “IGF-1R(h), activated % activity” value in experiment [6] amounted to 45%. Moreover, the “MST1(h) % activity” value in experiment [7] stood at 3%. For the same sequence, the “EphB1(h) % activity” value in experiment [8] amounted to 37%. Further, the “Pim-2(h) % activity” value in experiment [9] is 46%. Also, the “IR(h) % activity” value in [10] is recorded as 95%.

As for KAFAKLAARLYRKALARQLGVAA [MMI-0400], in experiment [11], the “MEK1(h) % activity” value was determined as 77%. In experiment [1], the “CK1δ(h) % activity” value amounted to 93%. Further, in [2], the “ALK(h) % activity” value was found to be 16%. In addition, in experiment [3], the “cKit(D816V)(h) % activity” value is 35%. Moreover, the “ZIPK(h) % activity” value in experiment [4] is listed as 13%. In addition, the “cKit(h) % activity” value in experiment [5] is on record as 43%. In addition, the “SGK(h) % activity” value in experiment [12] turned out to be 54%. For the same sequence, the “IGF-1R(h), activated % activity” value in experiment [6] was determined as 77%. In addition, the “MST1(h) % activity” value in [7] was 6%. Moreover, the “EphB1(h) % activity” value in experiment [8] was 58%. The “Pim-2(h) % activity” value in [9] was 92%. The “IR(h) % activity” value in experiment [10] was 85%.

Consider FAKLAARLYRKALARQLGVAA [MMI-0300], for which the “MEK1(h) % activity” value in experiment [11] is listed as 77%. In addition, the “CK1δ(h) % activity” value in [1] is listed as 92%. The “ALK(h) % activity” value in experiment [2] was determined as 19%. For the same sequence, in experiment [3], the “cKit(D816V)(h) % activity” value is listed as 60%. Further, the “ZIPK(h) % activity” value in [4] was determined as 28%. Also, the “cKit(h) % activity” value in [5] was determined as 53%. Besides, the “SGK(h) % activity” value in experiment [12] is 48%. The “IGF-1R(h), activated % activity” value in [6] was 80%. Further, in experiment [7], the “MST1(h) % activity” value amounted to 14%. Besides, the “EphB1(h) % activity” value in experiment [8] turned out to be 44%. For the same sequence, in experiment [9], the “Pim-2(h) % activity” value is given as 76%. Moreover, in experiment [10], the “IR(h) % activity” value turned out to be 96%.
